{"source": "the supplement of paper PMC9112550", "about": "“Optimization of the antimicrobial peptide Bac7 by deep mutational scanning” (BMC Biology, 2022);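 also: peptides expressed intracellularly from a pBAD plasmid library in pooled LB shake-flask culture, induced with 0.3% L-arabinose, DNA abundance read by NGS, three biological replicates, DESeq2 with apeglm shrinkage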"}
{"tested_on": "Escherichia coli TOP10", "assay": "shrunken log2 fold change of peptide-encoding DNA abundance (4.5 h post-induction vs induction); higher = less antimicrobial activity (less host growth inhibition)", "conditions": "time post-induction: 4.5 h; library: site-saturation at positions 5, 18, 19, 20"}
{"sequence": "RRIRRRPPRLPRPRPRPISYPRP", "shrunken log2 fold change": 0.0496}
{"sequence": "RRIRHRPPRLPRPRPRPDDIPRP", "shrunken log2 fold change": -0.0131}
{"sequence": "RRIRQRPPRLPRPRPRPTTGPRP", "shrunken log2 fold change": 0.0143}
{"sequence": "RRIRERPPRLPRPRPRPNQWPRP", "shrunken log2 fold change": 0.062}
{"sequence": "RRIRYRPPRLPRPRPRPDNHPRP", "shrunken log2 fold change": -0.135}
{"sequence": "RRIRERPPRLPRPRPRPAKYPRP", "shrunken log2 fold change": -0.274}
{"sequence": "RRIRWRPPRLPRPRPRPSVKPRP", "shrunken log2 fold change": -0.159}
{"sequence": "RRIRIRPPRLPRPRPRPIDEPRP", "shrunken log2 fold change": 0.0184}
{"sequence": "RRIRHRPPRLPRPRPRPSGKPRP", "shrunken log2 fold change": -0.0266}
{"sequence": "RRIRRRPPRLPRPRPRPCFAPRP", "shrunken log2 fold change": 0.442}
{"sequence": "RRIRWRPPRLPRPRPRPVQPPRP", "shrunken log2 fold change": 0.0708}
{"sequence": "RRIRYRPPRLPRPRPRPNWDPRP", "shrunken log2 fold change": -0.863}
{"sequence": "RRIRKRPPRLPRPRPRPPWWPRP", "shrunken log2 fold change": 0.777}
{"sequence": "RRIRYRPPRLPRPRPRPAFMPRP", "shrunken log2 fold change": -0.658}
{"sequence": "RRIRTRPPRLPRPRPRPGIGPRP", "shrunken log2 fold change": 0.17}
{"sequence": "RRIRCRPPRLPRPRPRPPISPRP", "shrunken log2 fold change": -0.38}
{"sequence": "RRIRTRPPRLPRPRPRPGHWPRP", "shrunken log2 fold change": 0.0708}
{"sequence": "RRIRDRPPRLPRPRPRPQHDPRP", "shrunken log2 fold change": -0.249}
{"sequence": "RRIRVRPPRLPRPRPRPNLQPRP", "shrunken log2 fold change": 0.0671}
{"sequence": "RRIRDRPPRLPRPRPRPSAGPRP", "shrunken log2 fold change": 0.67}
{"sequence": "RRIRKRPPRLPRPRPRPTKVPRP", "shrunken log2 fold change": 1.21}
{"sequence": "RRIRFRPPRLPRPRPRPGCMPRP", "shrunken log2 fold change": -0.178}
{"sequence": "RRIRARPPRLPRPRPRPAMNPRP", "shrunken log2 fold change": 0.121}
{"sequence": "RRIRVRPPRLPRPRPRPLDFPRP", "shrunken log2 fold change": -0.147}
{"sequence": "RRIRCRPPRLPRPRPRPTCIPRP", "shrunken log2 fold change": -0.307}
{"sequence": "RRIRRRPPRLPRPRPRPFHAPRP", "shrunken log2 fold change": 0.201}
{"sequence": "RRIRWRPPRLPRPRPRPVRSPRP", "shrunken log2 fold change": 0.239}
{"sequence": "RRIRYRPPRLPRPRPRPEAEPRP", "shrunken log2 fold change": 0.137}
{"sequence": "RRIRQRPPRLPRPRPRPTIFPRP", "shrunken log2 fold change": -0.0347}
{"sequence": "RRIRPRPPRLPRPRPRPGIYPRP", "shrunken log2 fold change": -0.133}
{"sequence": "RRIRARPPRLPRPRPRPCAHPRP", "shrunken log2 fold change": -0.0288}
{"sequence": "RRIRERPPRLPRPRPRPPCEPRP", "shrunken log2 fold change": -0.075}
{"sequence": "RRIRMRPPRLPRPRPRPFEDPRP", "shrunken log2 fold change": 0.2}
{"sequence": "RRIRWRPPRLPRPRPRPHVVPRP", "shrunken log2 fold change": 0.0851}
{"sequence": "RRIRFRPPRLPRPRPRPMIAPRP", "shrunken log2 fold change": -0.195}
{"sequence": "RRIRLRPPRLPRPRPRPQLPPRP", "shrunken log2 fold change": 0.178}
{"sequence": "RRIRYRPPRLPRPRPRPVHVPRP", "shrunken log2 fold change": -1.35}
{"sequence": "RRIRFRPPRLPRPRPRPDGMPRP", "shrunken log2 fold change": -0.0385}
{"sequence": "RRIRQRPPRLPRPRPRPWRCPRP", "shrunken log2 fold change": -0.149}
{"sequence": "RRIRHRPPRLPRPRPRPLNEPRP", "shrunken log2 fold change": -0.124}
{"sequence": "RRIRARPPRLPRPRPRPEMTPRP", "shrunken log2 fold change": 1.23}
{"sequence": "RRIRWRPPRLPRPRPRPPTIPRP", "shrunken log2 fold change": -0.0126}
{"sequence": "RRIRVRPPRLPRPRPRPWAFPRP", "shrunken log2 fold change": -0.189}
{"sequence": "RRIRIRPPRLPRPRPRPECCPRP", "shrunken log2 fold change": 0.0559}
{"sequence": "RRIRVRPPRLPRPRPRPRVQPRP", "shrunken log2 fold change": 0.328}
{"sequence": "RRIRGRPPRLPRPRPRPRYRPRP", "shrunken log2 fold change": 0.0699}
{"sequence": "RRIRQRPPRLPRPRPRPWKLPRP", "shrunken log2 fold change": -0.09}
{"sequence": "RRIRMRPPRLPRPRPRPFIRPRP", "shrunken log2 fold change": -0.47}
{"sequence": "RRIRDRPPRLPRPRPRPSDCPRP", "shrunken log2 fold change": -0.482}
{"sequence": "RRIRRRPPRLPRPRPRPFDAPRP", "shrunken log2 fold change": 0.44}
{"sequence": "RRIRMRPPRLPRPRPRPAYDPRP", "shrunken log2 fold change": -0.0572}
{"sequence": "RRIRLRPPRLPRPRPRPYNHPRP", "shrunken log2 fold change": -0.669}
{"sequence": "RRIRDRPPRLPRPRPRPRGKPRP", "shrunken log2 fold change": -0.0455}
{"sequence": "RRIRQRPPRLPRPRPRPLPSPRP", "shrunken log2 fold change": -0.0393}
{"sequence": "RRIRTRPPRLPRPRPRPIIFPRP", "shrunken log2 fold change": -0.0206}
{"sequence": "RRIRKRPPRLPRPRPRPYFSPRP", "shrunken log2 fold change": -0.178}
{"sequence": "RRIRKRPPRLPRPRPRPNLDPRP", "shrunken log2 fold change": -0.0443}
{"sequence": "RRIRRRPPRLPRPRPRPWQIPRP", "shrunken log2 fold change": 0.0297}
{"sequence": "RRIRQRPPRLPRPRPRPHKAPRP", "shrunken log2 fold change": -0.0398}
{"sequence": "RRIRSRPPRLPRPRPRPSKGPRP", "shrunken log2 fold change": -0.142}
